Measured values: patent US20090035321A1, “Intercellular adhesion molecules and their binding ligands” (Boehringer Ingelheim Pharmaceuticals, Inc., published 2009)

What was measured:
Test in all cases: COS cells on LFA-1 coated plastic
ICAM-1 Q62PM/API = ICAM-1 Q62PM/API (human, UniProt P05362)
ICAM-1 E111GGA/KAGS = ICAM-1 E111GGA/KAGS (human, UniProt P05362)
ICAM-1 M64/I = ICAM-1 M64/I (human, UniProt P05362)
ICAM-1 Q1/K = ICAM-1 Q1/K (human, UniProt P05362)
ICAM-1 E87/K = ICAM-1 E87/K (human, UniProt P05362)
ICAM-1 Q73/T = ICAM-1 Q73/T (human, UniProt P05362)
ICAM-1 D60/Q = ICAM-1 D60/Q (human, UniProt P05362)
ICAM-1 D71GQS/NGEL = ICAM-1 D71GQS/NGEL (human, UniProt P05362)
ICAM-1 S74/A = ICAM-1 S74/A (human, UniProt P05362)
ICAM-1 A178/G = ICAM-1 A178/G (human, UniProt P05362)
ICAM-1 E254DE/KEK = ICAM-1 E254DE/KEK (human, UniProt P05362)
ICAM-1 Y52/F = ICAM-1 Y52/F (human, UniProt P05362)
ICAM-1 R125/E = ICAM-1 R125/E (human, UniProt P05362)
ICAM-1 Y52/FA = ICAM-1 Y52/FA (human, UniProt P05362)
ICAM-1 Q58EDS/AKDI = ICAM-1 Q58EDS/AKDI (human, UniProt P05362)
ICAM-1 Y66/T = ICAM-1 Y66/T (human, UniProt P05362)
ICAM-1 D60/K = ICAM-1 D60/K (human, UniProt P05362)
ICAM-1 K128/R = ICAM-1 K128/R (human, UniProt P05362)
ICAM-1 G46NN/ASI = ICAM-1 G46NN/ASI (human, UniProt P05362)
ICAM-1 N103/K = ICAM-1 N103/K (human, UniProt P05362)
ICAM-1 D213GL/HGV = ICAM-1 D213GL/HGV (human, UniProt P05362)
ICAM-1 E34/A = ICAM-1 E34/A (human, UniProt P05362)
ICAM-1 N68/K = ICAM-1 N68/K (human, UniProt P05362)
ICAM-1 S24/A = ICAM-1 S24/A (human, UniProt P05362)
ICAM-1 E90/K = ICAM-1 E90/K (human, UniProt P05362)
ICAM-1 K39KE/ERQ = ICAM-1 K39KE/ERQ (human, UniProt P05362)
ICAM-1 S5/T (human) = ICAM-1 S5/T (human) (UniProt P05362)
ICAM-1 N175TSA/QTLG = ICAM-1 N175TSA/QTLG (human, UniProt P05362)
ICAM-1 E127/R = ICAM-1 E127/R (human, UniProt P05362)
ICAM-1 Q73/H = ICAM-1 Q73/H (human, UniProt P05362)
ICAM-1 L91/A = ICAM-1 L91/A (human, UniProt P05362)
ICAM-1 D71/N = ICAM-1 D71/N (human, UniProt P05362)
ICAM-1 G101K/AN = ICAM-1 G101K/AN (human, UniProt P05362)
ICAM-1 T75/A = ICAM-1 T75/A (human, UniProt P05362)
ICAM-1 N118/Q = ICAM-1 N118/Q (human, UniProt P05362)
ICAM-1 Q1/E = ICAM-1 Q1/E (human, UniProt P05362)
ICAM-1 D229QR/HLE = ICAM-1 D229QR/HLE (human, UniProt P05362)
ICAM-1 S61/I = ICAM-1 S61/I (human, UniProt P05362)
ICAM-1 K8/E = ICAM-1 K8/E (human, UniProt P05362)
ICAM-1 D203TQ/TAD = ICAM-1 D203TQ/TAD (human, UniProt P05362)
ICAM-1 R13/K = ICAM-1 R13/K (human, UniProt P05362)
ICAM-1 V4/G = ICAM-1 V4/G (human, UniProt P05362)
ICAM-1 A189T/SI = ICAM-1 A189T/SI (human, UniProt P05362)
ICAM-1 N156/E = ICAM-1 N156/E (human, UniProt P05362)
ICAM-1 E90/Q = ICAM-1 E90/Q (human, UniProt P05362)

Q: How did the LFA-1 Binding % (% of wild type) (ICAM-1 Q62PM/API) turn out when “purified LFA-1, bound to plastic (from UniProt P20701) (receptor)” was run?
A: 104

Q: And the LFA-1 Binding % (% of wild type) (ICAM-1 E111GGA/KAGS)?
A: 103

Q: And the LFA-1 Binding % (% of wild type) (ICAM-1 M64/I)?
A: 111

Q: What about the LFA-1 Binding % (% of wild type) (ICAM-1 Q1/K) of the same substance?
A: 97

Q: What about the LFA-1 Binding % (% of wild type) (ICAM-1 E87/K) of the same substance?
A: 65

Q: What about the LFA-1 Binding % (% of wild type) (ICAM-1 Q73/T) of the same substance?
A: 40

Q: And the LFA-1 Binding % (% of wild type) (ICAM-1 D60/Q)?
A: 18

Q: What about the LFA-1 Binding % (% of wild type) (ICAM-1 D71GQS/NGEL) of the same substance?
A: 1

Q: What about the LFA-1 Binding % (% of wild type) (ICAM-1 S74/A) of the same substance?
A: 70

Q: And the LFA-1 Binding % (% of wild type) (ICAM-1 A178/G)?
A: 59

Q: What about the LFA-1 Binding % (% of wild type) (ICAM-1 E254DE/KEK) of the same substance?
A: 122

Q: What about the LFA-1 Binding % (% of wild type) (ICAM-1 Y52/F) of the same substance?
A: 72

Q: What about the LFA-1 Binding % (% of wild type) (ICAM-1 R125/E) of the same substance?
A: 81

Q: And the LFA-1 Binding % (% of wild type) (ICAM-1 Y52/FA)?
A: 138

Q: What about the LFA-1 Binding % (% of wild type) (ICAM-1 Q58EDS/AKDI) of the same substance?
A: 3

Q: What about the LFA-1 Binding % (% of wild type) (ICAM-1 Y66/T) of the same substance?
A: 135

Q: And the LFA-1 Binding % (% of wild type) (ICAM-1 D60/K)?
A: 14

Q: And the LFA-1 Binding % (% of wild type) (ICAM-1 K128/R)?
A: 109

Q: What about the LFA-1 Binding % (% of wild type) (ICAM-1 G46NN/ASI) of the same substance?
A: 49

Q: What about the LFA-1 Binding % (% of wild type) (ICAM-1 N103/K) of the same substance?
A: 12

Q: And the LFA-1 Binding % (% of wild type) (ICAM-1 D213GL/HGV)?
A: 90

Q: What about the LFA-1 Binding % (% of wild type) (ICAM-1 E34/A) of the same substance?
A: 0

Q: What about the LFA-1 Binding % (% of wild type) (ICAM-1 N68/K) of the same substance?
A: 101

Q: And the LFA-1 Binding % (% of wild type) (ICAM-1 S24/A)?
A: 80

Q: And the LFA-1 Binding % (% of wild type) (ICAM-1 E90/K)?
A: 34

Q: What about the LFA-1 Binding % (% of wild type) (ICAM-1 K39KE/ERQ) of the same substance?
A: 99

Q: And the LFA-1 Binding % (% of wild type) (ICAM-1 S5/T (human))?
A: 104

Q: What about the LFA-1 Binding % (% of wild type) (ICAM-1 N175TSA/QTLG) of the same substance?
A: 26

Q: And the LFA-1 Binding % (% of wild type) (ICAM-1 E127/R)?
A: 82

Q: And the LFA-1 Binding % (% of wild type) (ICAM-1 Q73/H)?
A: 12

Q: What about the LFA-1 Binding % (% of wild type) (ICAM-1 L91/A) of the same substance?
A: 87

Q: What about the LFA-1 Binding % (% of wild type) (ICAM-1 D71/N) of the same substance?
A: 79

Q: And the LFA-1 Binding % (% of wild type) (ICAM-1 G101K/AN)?
A: 97

Q: And the LFA-1 Binding % (% of wild type) (ICAM-1 T75/A)?
A: 59

Q: And the LFA-1 Binding % (% of wild type) (ICAM-1 N118/Q)?
A: 54

Q: And the LFA-1 Binding % (% of wild type) (ICAM-1 Q1/E)?
A: 175

Q: What about the LFA-1 Binding % (% of wild type) (ICAM-1 D229QR/HLE) of the same substance?
A: 90

Q: And the LFA-1 Binding % (% of wild type) (ICAM-1 S61/I)?
A: 59

Q: And the LFA-1 Binding % (% of wild type) (ICAM-1 K8/E)?
A: 84

Q: What about the LFA-1 Binding % (% of wild type) (ICAM-1 D203TQ/TAD) of the same substance?
A: 91

Q: And the LFA-1 Binding % (% of wild type) (ICAM-1 R13/K)?
A: 98

Q: What about the LFA-1 Binding % (% of wild type) (ICAM-1 V4/G) of the same substance?
A: 64

Q: What about the LFA-1 Binding % (% of wild type) (ICAM-1 A189T/SI) of the same substance?
A: 91

Q: What about the LFA-1 Binding % (% of wild type) (ICAM-1 N156/E) of the same substance?
A: 60

Q: And the LFA-1 Binding % (% of wild type) (ICAM-1 E90/Q)?
A: 122
